Assay results published in the Immune Epitope Database (IEDB).
pIC50, pKd: −log10 of the molar value.

What was measured:
HLA-A*02:16 = test: IEDB peptide-MHC binding, purified MHC/competitive/fluorescence; filed as Kd, often an IC50 or EC50 that approximates it; ≥ and ≤ were set here for values at or beyond the usual limits of such assays
HLA-A*02:19 = test: as above
HLA-B*18:01 [1] = test: as above
HLA-A*03:01 [2] = test: as above
HLA-B*39:01 = test: as above
HLA-B*27:03 = test: as above
HLA-A*02:12 = test: as above
HLA-B*46:01 [3] = test: as above
HLA-A*02:11 = test: as above
HLA-A*69:01 [4] = test: as above
HLA-B*15:17 = test: as above
HLA-B*57:01 = test: as above
HLA-A*02:01 [5] = test: as above
HLA-A*29:02 = test: as above
HLA-A*24:03 = test: as above
HLA-B*51:01 = test: as above
HLA-A*26:01 = test: as above
HLA-A*02:03 = test: as above
HLA-A*23:01 = test: as above
HLA-B*15:01 [6] = test: as above
HLA-B*58:01 = test: IEDB peptide-MHC binding, purified MHC/direct/fluorescence; filed as Kd, often an IC50 or EC50 that approximates it; ≥ and ≤ were set here for values at or beyond the usual limits of such assays
HLA-B*18:01 [7] = test: as above; conditions: source organism: Influenza A virus (A/equine/Massachussetts/213/2003(H3N8))
HLA-B*07:02 [8] = test: as above
HLA-A*01:01 = test: as above
HLA-A*03:01 [9] = test: as above
HLA-A*31:01 = test: as above; conditions: source organism: Influenza A virus (A/equine/Massachussetts/213/2003(H3N8))
HLA-B*40:01 = test: as above
HLA-B*46:01 [10] = test: as above
HLA-B*15:09 = test: as above; conditions: source organism: Influenza A virus(A/swine/Henan/8/2004(H9N2))
HLA-A*11:01 [11] = test: as above
HLA-A*69:01 [12] = test: as above; conditions: source organism: Influenza A virus (A/equine/Massachussetts/213/2003(H3N8))
HLA-A*24:02 [13] = test: as above
HLA-A*02:01 [14] = test: as above
HLA-B*27:05 = test: as above
HLA-B*15:01 [15] = test: as above
HLA-A*24:02 [16] = test: IEDB peptide-MHC binding, purified MHC/competitive/fluorescence; ≥ and ≤ were set here for values at or beyond the usual limits of such assays; conditions: source organism: Zaire ebolavirus
HLA-B*08:01 [17] = test: as above; conditions: source organism: Zaire ebolavirus
HLA-B*44:02 = test: IEDB peptide-MHC binding, purified MHC/direct/fluorescence; filed as Kd, often an IC50 or EC50 that approximates it; ≥ and ≤ were set here for values at or beyond the usual limits of such assays; conditions: source organism: Influenza A virus (A/WSN/1933(H1N1))
HLA-B*08:01 [18] = test: as above; conditions: source organism: Influenza A virus (A/WSN/1933(H1N1))
HLA-A*68:02 = test: IEDB peptide-MHC binding, purified MHC/competitive/fluorescence; filed as Kd, often an IC50 or EC50 that approximates it; ≥ and ≤ were set here for values at or beyond the usual limits of such assays; conditions: source organism: Burkholderia orbicola
HLA-B*07:02 [19] = test: IEDB peptide-MHC binding, purified MHC/competitive/fluorescence; ≥ and ≤ were set here for values at or beyond the usual limits of such assays; conditions: source organism: Zaire ebolavirus
HLA-A*03:01 [20] = test: as above; conditions: source organism: Zaire ebolavirus
HLA-A*11:01 [21] = test: as above; conditions: source organism: Zaire ebolavirus
HLA-A*02:01 [22] = test: as above; conditions: source organism: Zaire ebolavirus
HLA-B*15:01 [23] = test: as above; conditions: source organism: Zaire ebolavirus
[24] = source organism: Brucella melitensis bv. 1 str. 16M
[25] = source organism: Influenza A virus (A/equine/Massachussetts/213/2003(H3N8))
[26] = source organism: Influenza A virus (A/WSN/1933(H1N1))
[27] = source organism: Burkholderia orbicola
[28] = source organism: Zaire ebolavirus

AVGVVCTGL
pKd (HLA-A*02:16; [24]): 6.56 | pKd (HLA-A*02:19; [24]): ≤ 4.70 | pKd (HLA-B*18:01 [1]; [24]): ≤ 4.70 | pKd (HLA-A*03:01 [2]; [24]): ≤ 4.70 | pKd (HLA-B*39:01; [24]): ≤ 4.70 | pKd (HLA-B*27:03; [24]): ≤ 4.70 | pKd (HLA-A*02:12; [24]): ≤ 4.70 | pKd (HLA-B*46:01 [3]; [24]): ≤ 4.70 | pKd (HLA-A*02:11; [24]): ≤ 4.70 | pKd (HLA-A*69:01 [4]; [24]): ≤ 4.70 | pKd (HLA-B*15:17; [24]): ≤ 4.70 | pKd (HLA-B*57:01; [24]): ≤ 4.70 | pKd (HLA-A*02:01 [5]; [24]): ≤ 4.70 | pKd (HLA-A*29:02; [24]): ≤ 4.70 | pKd (HLA-A*24:03; [24]): ≤ 4.70 | pKd (HLA-B*51:01; [24]): ≤ 4.70 | pKd (HLA-A*26:01; [24]): ≤ 4.70 | pKd (HLA-A*02:03; [24]): ≤ 4.70 | pKd (HLA-A*23:01; [24]): ≤ 4.70 | pKd (HLA-B*15:01 [6]; [24]): ≤ 4.70

ILKGKFQTA
pKd (HLA-B*58:01; [25]): ≤ 4.70 | pKd (HLA-B*18:01 [7]): ≤ 4.70 | pKd (HLA-B*07:02 [8]; [25]): ≤ 4.70 | pKd (HLA-A*01:01; [25]): ≤ 4.70 | pKd (HLA-A*03:01 [9]; [25]): ≤ 4.70 | pKd (HLA-A*31:01): ≤ 4.70 | pKd (HLA-B*40:01; [25]): ≤ 4.70 | pKd (HLA-B*46:01 [10]; [25]): ≤ 4.70 | pKd (HLA-B*15:09): ≤ 4.70 | pKd (HLA-A*11:01 [11]; [25]): ≤ 4.70 | pKd (HLA-A*69:01 [12]): ≤ 4.70 | pKd (HLA-A*24:02 [13]; [25]): ≤ 4.70 | pKd (HLA-A*02:01 [14]; [25]): ≤ 4.70 | pKd (HLA-B*27:05; [25]): ≤ 4.70 | pKd (HLA-B*15:01 [15]; source organism: Influenza A virus (A/Puerto Rico/8/34/Mount Sinai(H1N1))): 5.24

NHKNKFMAI
pIC50 (HLA-A*24:02 [16]): 4.71 | pIC50 (HLA-B*08:01 [17]): 4.80

NLEPGTFDL
pKd (HLA-B*58:01; [26]): ≤ 4.70 | pKd (HLA-B*44:02): ≤ 4.70 | pKd (HLA-B*07:02 [8]; [26]): ≤ 4.70 | pKd (HLA-A*01:01; [26]): ≤ 4.70 | pKd (HLA-A*03:01 [9]; [26]): ≤ 4.70 | pKd (HLA-B*40:01; [26]): ≤ 4.70 | pKd (HLA-B*46:01 [10]; [26]): ≤ 4.70 | pKd (HLA-A*11:01 [11]; [26]): ≤ 4.70 | pKd (HLA-A*24:02 [13]; [26]): ≤ 4.70 | pKd (HLA-B*27:05; [26]): ≤ 4.70 | pKd (HLA-B*08:01 [18]): ≤ 4.70 | pKd (HLA-B*15:01 [15]; [26]): ≤ 4.70

RIEQLYPFA
pKd (HLA-A*02:16; [27]): 6.54 | pKd (HLA-A*02:19; [27]): ≤ 4.70 | pKd (HLA-B*18:01 [1]; [27]): ≤ 4.70 | pKd (HLA-A*03:01 [2]; [27]): ≤ 4.70 | pKd (HLA-B*39:01; [27]): ≤ 4.70 | pKd (HLA-B*27:03; [27]): ≤ 4.70 | pKd (HLA-A*02:12; [27]): ≤ 4.70 | pKd (HLA-B*46:01 [3]; [27]): ≤ 4.70 | pKd (HLA-A*02:11; [27]): ≤ 4.70 | pKd (HLA-A*69:01 [4]; [27]): ≤ 4.70 | pKd (HLA-B*15:17; [27]): ≤ 4.70 | pKd (HLA-B*57:01; [27]): ≤ 4.70 | pKd (HLA-A*02:01 [5]; [27]): ≤ 4.70 | pKd (HLA-A*29:02; [27]): ≤ 4.70 | pKd (HLA-A*24:03; [27]): ≤ 4.70 | pKd (HLA-B*51:01; [27]): ≤ 4.70 | pKd (HLA-A*26:01; [27]): ≤ 4.70 | pKd (HLA-A*02:03; [27]): ≤ 4.70 | pKd (HLA-A*23:01; [27]): ≤ 4.70 | pKd (HLA-A*68:02): ≤ 4.70 | pKd (HLA-B*15:01 [6]; [27]): ≤ 4.70

RLMRTNFLI
pIC50 (HLA-B*07:02 [19]): 4.80 | pIC50 (HLA-A*03:01 [20]): 5.47 | pIC50 (HLA-A*11:01 [21]): 5.40 | pIC50 (HLA-A*24:02 [16]): 7.67 | pIC50 (HLA-A*02:01 [22]): 6.29 | pIC50 (HLA-B*08:01 [17]): 4.23 | pIC50 (HLA-B*15:01 [23]): 4.94 | pKd (HLA-A*02:01 [14]; [28]): 7.76 | pKd (HLA-B*18:01 [1]; [28]): ≤ 4.70 | pKd (HLA-B*46:01 [3]; [28]): ≤ 4.70 | pKd (HLA-A*26:01; [28]): ≤ 4.70

TNFLIKFLL
pIC50 (HLA-A*24:02 [16]): 5.49 | pIC50 (HLA-A*02:01 [22]): ≤ 3.74 | pIC50 (HLA-B*08:01 [17]): ≤ 3.28
